Measurements reported in US20030144191.

Experiments:
[1] = molecular target: Histon
[2] = molecular target: MBP

B1: TRP-PLIK2-GST fusion protein (TRP-PLIK2 kinase domain fused to GST) (protein)
chain: PMTMSSPLSQAKIMQTGGGYVNWAFSEGDETGVFSIKKKWQTCLPSTCDSDSSRSEQHQKQAQDSSLSDNSTRSAQSSECSEVGPWLQPNTSFWINPLRRYRPFARSHSFRFHKEEKLMKICKIKNLSGSSEIGQGAWVKAKMLTKDRRLSKKKKNTQGLQVPIITVNACSQSDQLNPEPGENSISEEEYSKNWFTVSKFSHTGVEPYIHQKMKTKEIGQCAIQISDYLKQSQEDLSKNSLWNSRSTNLNRNSLLKSSIGVDKISASLKSPQEPHHHYSAIERNNLMRLSQTIPFTPVQLFAGEEITVYRLEESSPLNLDKSMSSWSQRGRAAMIQVLSREEMDGGLRKAMRVVSTWSEDDILKPGQVFIVKSFLPEVVRTWHKIFQESTVLHLCLREIQQQRAAQKLIYTFNQVKPQTIPYTPRFLEVFLIYCHSANQWLTIEKYMTGEFRKYNNNNGDEITPTNTLEELMLAFSHWTYEYTRGELLVLDLQGVGENLTDPSVIKPEVKQSRGMVFGPANLGEDAIRNFIAKHHCNSCCRKLKLPDLKRNDYSPERINSTFGLEIKIESAEEPPARETGRNSPEDDMQL
With B1 the “32P incorporation (kinase assay, SDS-PAGE, autoradiography)” value [1] was “MBP was determined to be a preferred substrate over Histon”, the “32P incorporation (kinase assay, SDS-PAGE, autoradiography)” value [2] was “MBP was determined to be a preferred substrate over Histon” and the “incorporated 32P in the substrate (kinase assay, SDS-PAGE, autoradiography)” value [2] was “predicted TRP-PLIK2 kinase domain was determined to have kinase activity as demonstrated by the phosphorylated MBP protein”.
